Test results from article PMC5035592.

What was measured:
[1] = molecular target: platelet glycoprotein Ib alpha (UniProt P07359); test: VWF:GPIb binding assay
[2] = molecular target: equine collagen (Horm), a mixture of 95 % collagen type I and 5 % type III (equine); test: VWF collagen binding assay

Row | Substance | ratio of VWF:GPIbα binding to VWF:Ag [1] | VWF:GPIbα binding (in relation to rwtVWF) [1] | ratio of VWF:GPIbα binding to VWF:Ag in medium (in relation to rwtVWF) [1] | ratio of VWF:CB to VWF:Ag in medium (in relation to rwtVWF) [2]
1 | plasma von Willebrand factor of a normal person (from UniProt P04275-1 764-2813) (natural protein) | 1.06 |  |  | 
2 | recombinant wild type von Willebrand factor (from UniProt P04275-1 764-2813) (natural protein) |  | 1 | 1 | 1
